Laboratory results published in publication PMC8593154.

Legend:
[1] = biological target: γB2ΔICD-EC5-VenusΔN3C9-P3 (mouse) (UniProt Q91XX7); experiment: FRET or BRET; acceptor photobleaching at cell adhesion sites of co-cultured HEK293T cells individually expressing donor (mTQ2) and acceptor (Venus) constructs; trans interaction across cells
[2] = biological target: γB2ΔICD-EC5-Venus (mouse) (UniProt Q91XX7); experiment: as above

FRET efficiency [1] [%] | FRET efficiency [2] [%] | Substance
27.4 | – | γB2ΔICD-EC1-G4S-mTQ2ΔC6 (from UniProt Q91XX7 1-738) (receptor)
– | 14.1 | γB2ΔICD-EC1-mTQ2 (from UniProt Q91XX7 1-738) (receptor)
